The text below walks through data of PMC3643581.

The series addresses rPTB4 (pQE-PTB4) (UniProt P26599 1-557). Nature of the series: UV cross-linking.

rPTB4 (pQE-PTB4), sequence (P26599 whole entry): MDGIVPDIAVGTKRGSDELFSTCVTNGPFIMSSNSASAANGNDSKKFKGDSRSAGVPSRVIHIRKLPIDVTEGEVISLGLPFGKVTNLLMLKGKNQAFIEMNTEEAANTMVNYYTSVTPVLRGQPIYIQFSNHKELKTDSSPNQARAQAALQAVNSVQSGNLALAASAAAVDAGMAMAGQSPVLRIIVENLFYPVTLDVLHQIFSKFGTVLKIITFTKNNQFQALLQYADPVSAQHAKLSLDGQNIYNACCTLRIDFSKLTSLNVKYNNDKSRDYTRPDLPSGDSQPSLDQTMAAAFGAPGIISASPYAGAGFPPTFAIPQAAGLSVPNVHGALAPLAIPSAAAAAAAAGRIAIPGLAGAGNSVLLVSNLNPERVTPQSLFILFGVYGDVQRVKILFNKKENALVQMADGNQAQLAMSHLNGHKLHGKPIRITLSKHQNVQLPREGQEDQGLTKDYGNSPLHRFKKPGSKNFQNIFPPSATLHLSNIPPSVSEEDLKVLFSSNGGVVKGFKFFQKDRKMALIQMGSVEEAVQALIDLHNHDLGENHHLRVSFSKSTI

B1: MBNL SELEX RNA D12 (ssRNA)
RNA: GGGAGACAAGCUCCUCCUGCGCUCUUUGCUUGCCCUGCUGUGUCGAAUU
As to B1, the binding result is given as “no binding”.
